Data published in paper PMC2763353.

Key:
Assay in all cases: EMSA
[1] = target: Pax5(1-149) WT;GABPα(311-430) (human;, UniProt Q02548;Q00422 1-149;311-430, |)
[2] = target: Pax5(1-149) WT;GABPα(311-430);GABPβ1(1-157) (human;;, UniProt Q02548;Q00422;Q00420 1-149;311-430;1-157, ||)
[3] = target: Pax5(1-149) WT (human, UniProt Q02548 1-149)
[4] = target: GABPα(311-430);GABPβ1(1-157) (;, UniProt Q00422;Q00420 311-430;1-157, |)
[5] = target: Pax5(1-149) Q22A (human, UniProt Q02548 1-149, Q22A)
[6] = target: T1, Ets-1(331-440) (murine, UniProt P27577 331-440)
T1 sequence: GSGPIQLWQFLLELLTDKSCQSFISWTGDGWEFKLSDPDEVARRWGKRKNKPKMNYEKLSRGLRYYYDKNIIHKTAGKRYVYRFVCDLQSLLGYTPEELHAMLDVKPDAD

[7] = target: Pax5(1-149) Q22A;GABPα(311-430) (human;, UniProt Q02548;Q00422 1-149;311-430, Q22A|)
[8] = target: T2, Ets-1(280-440) (murine, UniProt P27577 280-440)
T2 sequence: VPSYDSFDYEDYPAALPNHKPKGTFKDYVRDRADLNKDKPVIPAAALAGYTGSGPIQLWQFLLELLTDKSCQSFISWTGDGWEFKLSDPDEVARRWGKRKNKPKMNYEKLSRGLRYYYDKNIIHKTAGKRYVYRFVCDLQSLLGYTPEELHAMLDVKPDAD

[9] = target: Pax5(1-149) WT;Ets-1(280-440) (human;murine, UniProt Q02548;P27577 1-149;280-440, |)
[10] = target: Pax5(1-149) WT;Ets-1(331-440) (human;murine, UniProt Q02548;P27577 1-149;331-440, |)
[11] = target: Pax5(1-149) Q22A;Ets-1(331-440) (human;murine, UniProt Q02548;P27577 1-149;331-440, Q22A|)
[12] = target: Pax5(1-149) Q22A;Ets-1(280-440) (human;murine, UniProt Q02548;P27577 1-149;280-440, Q22A|)
[13] = target: Pax5(1-149) Q22A;GABPα(311-430);GABPβ1(1-157) (human;;, UniProt Q02548;Q00422;Q00420 1-149;311-430;1-157, Q22A||)
Pax5(1-149) Q22A;GABPα(311-430);GABPβ1(1-157), sequence (Q02548 1-149 Q22A, chain 1 of 3): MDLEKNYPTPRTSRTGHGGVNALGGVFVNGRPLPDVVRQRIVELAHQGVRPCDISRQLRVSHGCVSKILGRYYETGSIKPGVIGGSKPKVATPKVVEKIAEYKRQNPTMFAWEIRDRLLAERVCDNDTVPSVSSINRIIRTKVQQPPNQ
Pax5(1-149) Q22A;GABPα(311-430);GABPβ1(1-157), sequence (Q00422 311-430, chain 2 of 3): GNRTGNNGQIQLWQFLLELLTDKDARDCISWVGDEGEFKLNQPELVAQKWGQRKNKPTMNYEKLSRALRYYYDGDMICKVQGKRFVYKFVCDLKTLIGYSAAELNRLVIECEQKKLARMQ
Pax5(1-149) Q22A;GABPα(311-430);GABPβ1(1-157), sequence (Q00420 1-157, chain 3 of 3): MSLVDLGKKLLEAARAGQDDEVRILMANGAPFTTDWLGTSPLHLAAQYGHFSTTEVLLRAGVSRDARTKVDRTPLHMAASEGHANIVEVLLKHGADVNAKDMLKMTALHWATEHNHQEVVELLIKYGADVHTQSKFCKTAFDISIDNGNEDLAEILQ

Pax5(1-149) WT;Ets-1(331-440), sequence (Q02548 1-149, chain 1 of 2, one chain of several): as the sequence (Q02548 1-149 Q22A, chain 1 of 3) above, with A22Q counted along it
Pax5(1-149) WT;GABPα(311-430);GABPβ1(1-157), sequence (Q02548 1-149, chain 1 of 3): as the sequence (Q02548 1-149 Q22A, chain 1 of 3) above, with A22Q counted along it
Pax5(1-149) WT;GABPα(311-430);GABPβ1(1-157), sequence (Q00422 311-430, chain 2 of 3): as the sequence (Q00422 311-430, chain 2 of 3) above
Pax5(1-149) WT;GABPα(311-430);GABPβ1(1-157), sequence (Q00420 1-157, chain 3 of 3): as the sequence (Q00420 1-157, chain 3 of 3) above
Pax5(1-149) WT, sequence (Q02548 1-149): as the sequence (Q02548 1-149 Q22A, chain 1 of 3) above, with A22Q counted along it
Pax5(1-149) WT;GABPα(311-430), sequence (Q02548 1-149, chain 1 of 2): as the sequence (Q02548 1-149 Q22A, chain 1 of 3) above, with A22Q counted along it
Pax5(1-149) WT;GABPα(311-430), sequence (Q00422 311-430, chain 2 of 2): as the sequence (Q00422 311-430, chain 2 of 3) above
Pax5(1-149) WT;Ets-1(280-440), sequence (Q02548 1-149, chain 1 of 2, one chain of several): as the sequence (Q02548 1-149 Q22A, chain 1 of 3) above, with A22Q counted along it
GABPα(311-430);GABPβ1(1-157), sequence (Q00422 311-430, chain 1 of 2): as the sequence (Q00422 311-430, chain 2 of 3) above
GABPα(311-430);GABPβ1(1-157), sequence (Q00420 1-157, chain 2 of 2): as the sequence (Q00420 1-157, chain 3 of 3) above
Pax5(1-149) Q22A;Ets-1(331-440), sequence (Q02548 1-149 Q22A, one chain of several): as the sequence (Q02548 1-149 Q22A, chain 1 of 3) above
Pax5(1-149) Q22A;GABPα(311-430), sequence (Q02548 1-149 Q22A, chain 1 of 2): as the sequence (Q02548 1-149 Q22A, chain 1 of 3) above
Pax5(1-149) Q22A;GABPα(311-430), sequence (Q00422 311-430, chain 2 of 2): as the sequence (Q00422 311-430, chain 2 of 3) above
Pax5(1-149) Q22A;Ets-1(280-440), sequence (Q02548 1-149 Q22A, chain 1 of 2, one chain of several): as the sequence (Q02548 1-149 Q22A, chain 1 of 3) above
Pax5(1-149) Q22A, sequence (Q02548 1-149 Q22A): as the sequence (Q02548 1-149 Q22A, chain 1 of 3) above

B1: P5-EBS probe (dsDNA)
DNA 1: TCGAAGGGCCACTGGAGCCCATCTCCGGCACGGC
DNA 2: TCGAGCCGTGCCGGAGATGGGCTCCAGTGGCCCT
B1 gave a Kd [1] of 17.8 ± 0.74 nM, a Kd [2] of 4.08 ± 0.38 nM and a Kd [3] of 2.4 ± 0.47 nM. The Kd [4] was 234 ± 24.8 nM, the Kd [5] was 1.72 ± 0.37 nM and the Kd [6] was 136 ± 5.29 nM. For the same binder, the Kd [7] was 6.14 ± 5.38 nM, the binding result [8] was “no binding” and the Kd [9] was 0.49 ± 0.05 nM. The Kd [10] was 0.89 ± 0.14 nM, the Kd [11] was 7.89 ± 0.76 nM and the Kd [12] was 162 ± 44.3 nM. It also gave a Kd [13] of 3.36 ± 0.14 nM.
